The values that follow come from PMC5349596.

This series concerns the target Asp74 (UniProt position 74, WARYIDWVITT). In words: UV-vis. The conditions noted are these: room temperature (approx. 25 °C); not stated (no added salt; low-millimolar buffer mixture; pH adjusted with concentrated H2SO4); 0.89 mM citric acid, 0.89 mM MES, 1.1 mM TES, 0.78 mM TAPS, 1.1 mM CHES and 0.33 mM CAPS; Folded, retinal-bound (nearly 100% all-trans), detergent-solubilised; dark or light adaptation during the titration not stated.

In the case of “Rubrobacter xylanophilus rhodopsin (RxR) (Rubrobacter xylanophilus DSM 9941)”, the pKa came out at 1.3 ± 0.17.

The term pKa denotes the negative logarithm of the acid dissociation constant.
